B1: r11_951_TrROS_Hall (parent)
chain: KKKYVIKVYFEDTGKEVEIEAESKEEALEAAKRLAEELGLKIKKVEIYP

Variants of: B1
Assay: folding stability dG (cDNA display proteolysis); higher = more stable
Settings: PBS, room temperature

Variant	folding stability dG
K32A	4.44 kcal/mol
K32L	4.55 kcal/mol
K32T	4.41 kcal/mol
K32S	4.42 kcal/mol
K32F	4.98 kcal/mol
K32M	4.68 kcal/mol
K32V	4.35 kcal/mol
K32I	4.34 kcal/mol
K32P	3.09 kcal/mol
K32Y	4.9 kcal/mol
K32W	4.78 kcal/mol
K32R	4.26 kcal/mol
K32D	4.21 kcal/mol
K32H	4.55 kcal/mol
K32E	4.28 kcal/mol
K32G	4.13 kcal/mol
K32N	4.51 kcal/mol
K32C	4.22 kcal/mol
K32Q	4.38 kcal/mol
R33P	2.02 kcal/mol
R33V	4.22 kcal/mol
R33F	4.38 kcal/mol
R33D	4.09 kcal/mol
R33S	4.2 kcal/mol

Variant	folding stability dG
R33I	4.28 kcal/mol
R33Y	4.63 kcal/mol
R33M	4.32 kcal/mol
R33C	4.17 kcal/mol
R33E	4.03 kcal/mol
R33H	4.18 kcal/mol
R33A	4.04 kcal/mol
R33N	4.22 kcal/mol
R33T	4.18 kcal/mol
R33L	4.23 kcal/mol
R33W	4.65 kcal/mol
R33K	4.39 kcal/mol
R33Q	4.02 kcal/mol
R33G	4.21 kcal/mol
L40E	3.99 kcal/mol
L40H	4.12 kcal/mol
L40D	3.85 kcal/mol
L40C	3.95 kcal/mol
L40G	3.56 kcal/mol
L40F	4.6 kcal/mol
L40A	4.02 kcal/mol
E36S	4.53 kcal/mol
E36R	4.91 kcal/mol
E36F	4.76 kcal/mol

Variant	folding stability dG
E36T	4.6 kcal/mol
E36A	4.62 kcal/mol
E36D	4.42 kcal/mol
E36L	4.68 kcal/mol
E36G	4.6 kcal/mol
E36Q	4.66 kcal/mol
E36K	4.54 kcal/mol
E36H	4.56 kcal/mol
E36P	3.05 kcal/mol
E36I	4.61 kcal/mol
E36M	4.66 kcal/mol
E36V	4.66 kcal/mol
E36C	4.39 kcal/mol
E37A	4.67 kcal/mol
E37G	4.55 kcal/mol
E37M	4.67 kcal/mol
E37L	4.55 kcal/mol
E37P	2.86 kcal/mol
E37F	4.73 kcal/mol
E37K	4.68 kcal/mol
E37C	4.94 kcal/mol
E37Q	4.77 kcal/mol
E37V	4.6 kcal/mol
E37T	4.61 kcal/mol

Variant	folding stability dG
E37D	4.29 kcal/mol
E37R	4.69 kcal/mol
E37S	4.71 kcal/mol
E37H	4.72 kcal/mol
E37I	4.61 kcal/mol
E37Y	4.82 kcal/mol
E37N	4.42 kcal/mol
G39E	4.18 kcal/mol
G39Q	4.37 kcal/mol
G39Y	3.82 kcal/mol
G39T	4 kcal/mol
G39V	4.03 kcal/mol
G39M	4.38 kcal/mol
G39I	3.67 kcal/mol
G39S	4.26 kcal/mol
G39R	4.43 kcal/mol
G39A	4.49 kcal/mol
G39C	4.25 kcal/mol
G39P	2.73 kcal/mol
G39K	4.53 kcal/mol
G39L	4.06 kcal/mol
G39N	4.39 kcal/mol
G39H	4.31 kcal/mol
G39W	3.5 kcal/mol

Variant	folding stability dG
G39D	3.99 kcal/mol
G39F	4.14 kcal/mol
A31K	2.42 kcal/mol
A31R	2.47 kcal/mol
A31Q	2.81 kcal/mol
A31T	4.01 kcal/mol
A31S	4.2 kcal/mol
A31N	1.73 kcal/mol
A31M	4.4 kcal/mol
A31P	3.02 kcal/mol
A31Y	4.33 kcal/mol
A31V	4.45 kcal/mol
A31W	4.25 kcal/mol
A31L	4.21 kcal/mol
L38K	4.2 kcal/mol
L38R	4.34 kcal/mol
L38M	4.56 kcal/mol
L38W	4.52 kcal/mol
L38Y	4.53 kcal/mol
L38N	4.15 kcal/mol
L38V	4.3 kcal/mol
L38H	4.13 kcal/mol
L38S	4.28 kcal/mol
L38A	4.52 kcal/mol

Variant	folding stability dG
L38D	3.39 kcal/mol
L38T	4.16 kcal/mol
L38E	3.89 kcal/mol
L38F	4.42 kcal/mol
L38G	3.85 kcal/mol
L38C	4.07 kcal/mol
L38P	2.86 kcal/mol
L38Q	4.21 kcal/mol
L38I	4.29 kcal/mol
L34M	4.55 kcal/mol
L34N	3.66 kcal/mol
L34K	4.35 kcal/mol
L34A	4.16 kcal/mol
L34D	2.95 kcal/mol
L34R	4.32 kcal/mol
L34G	3.15 kcal/mol
L34Q	3.99 kcal/mol
L34T	4.25 kcal/mol
L34E	3.68 kcal/mol
L34C	3.85 kcal/mol
L34H	4.22 kcal/mol
L34P	1.34 kcal/mol
L34W	4.57 kcal/mol
L34I	4.27 kcal/mol

Variant	folding stability dG
L34F	4.52 kcal/mol
L34Y	4.45 kcal/mol
L34V	4.51 kcal/mol
L34S	4.01 kcal/mol
A35D	2.58 kcal/mol
A35H	3.63 kcal/mol
A35G	4.25 kcal/mol
A35M	3.97 kcal/mol
A35Q	3.9 kcal/mol
A35P	2.83 kcal/mol
A35T	3.84 kcal/mol
A35W	4.13 kcal/mol
A35R	3.55 kcal/mol
A35C	4.08 kcal/mol
A35E	4.05 kcal/mol
A35S	4.35 kcal/mol
A35K	3.58 kcal/mol
A35Y	3.78 kcal/mol
A35F	4.13 kcal/mol
A35V	4.06 kcal/mol
A35I	3.99 kcal/mol
A35L	3.88 kcal/mol
A35N	3.14 kcal/mol
